We go through 16 substances from article PMC9016351.

One assay addresses RA‐BAX (UniProt Q07812). As to the kind of experiment: ddFP assay in cells (confocal microscopy). Particulars: U2OS BAX/BAK DKO cells, 3 h after apoptosis induction; n = 3 independent experiments (n = 100 cells each); parent: est. 28; read off a plot.
Another assay concerns the target GB‐DRP1. The assay can be described thus: ddFP assay in cells (confocal microscopy). The following applies: U2OS BAX/BAK DKO cells, 3 h after apoptosis induction; n = 3 independent experiments (n = 100 cells each); parent: est. 21; read off a plot.

Sequence of UniProt Q07812 (Q07812 whole entry): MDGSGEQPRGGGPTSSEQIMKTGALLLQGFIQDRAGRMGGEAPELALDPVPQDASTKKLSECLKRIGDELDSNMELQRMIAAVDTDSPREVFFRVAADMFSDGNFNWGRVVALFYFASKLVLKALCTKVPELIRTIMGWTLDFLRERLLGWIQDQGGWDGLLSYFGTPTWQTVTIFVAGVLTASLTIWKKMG

Consider GB‐DRP1 D221A, for which the response in the assay with RA‐BAX was determined as 27%. Regarding RA‐BAX (from UniProt Q07812) L59C, in the assay with GB‐DRP1, the response is 38%.

For GB‐DRP1 K38A, the response with RA‐BAX is 24%. On to “RA‐BAX (from UniProt Q07812) K21E; R134E”, for which the response in the assay with GB‐DRP1 was 26%. As to GB‐DRP1 R376E, the response with RA‐BAX came out at 34%. Consider GB‐DRP1 K642E, for which the response with RA‐BAX turned out to be 33%. For “RA‐BAX (from UniProt Q07812) G67R; S184V”, the response with GB‐DRP1 is 3%. On to RA‐BAX (from UniProt Q07812) G67R, for which the response in the assay with GB‐DRP1 worked out at 15%. On the same count and under the same terms, the figure for RA‐BAX (from UniProt Q07812) G40E is 15%. The same measure, in the same setting: in the case of RA‐BAX (from UniProt Q07812) R134E it was 19%.

With GB‐DRP1 K557R; K560R; K569R; K571R, the response in the assay with RA‐BAX was found to be 35%. RA‐BAX (from UniProt Q07812) K57E: the response in the assay with GB‐DRP1 stood at 22%. Regarding RA‐BAX (from UniProt Q07812) L63E, the response with GB‐DRP1 stood at 0%.

In the case of RA‐BAX (from UniProt Q07812) K58E, the response with GB‐DRP1 amounted to 21%. Still for that read-out and setting: the figure for RA‐BAX (from UniProt Q07812) S184V is 7.5%; for RA‐BAX (from UniProt Q07812) K21E it is 31%.
